{"source": "paper PMC5427998", "about": "(Chemical Science, 2017)", "origin": "cited, not measured here", "conditions": "95 °C", "note": "Bridges are numbered along the chain shown (N, C = ends). Where no end group is shown, it is not given here."}
{"substance": "Microcin J25 (GGAGHVPEYFVGIGTPISFYG; lactam N-8; UniProt Q9X2V7 38-58, looked up) [MccJ25]", "values": [{"measurement": "thermal denaturation / retention of threaded structure", "result": "did not denature"}]}
